According to paper PMC5484772:
Bridges are numbered along the chain shown (N, C = ends). Where no end group is shown, it is not given here.

Legend:
Assay in all cases: SPR; competition in solution, Biacore T200: 796 nM (50 ug/ml) purified DiCo mixed with PfRon2L in serial 1:3 dilutions from 12.5 uM to 5.7 nM, incubated 4 h at room temperature; residual binding of free DiCo read on biotinylated PfRon2L immobilised on a Series S streptavidin chip; buffer control set to 100%
DiCo-Mix = target: DiCo-Mix
[1] = target: PfAMA1 diversity covering variant DiCo1
[2] = target: PfAMA1 diversity covering variant DiCo2
[3] = target: PfAMA1 diversity covering variant DiCo3

B1: PfRon2L (peptide)
peptide: DITQQAKDIGAGPVASCFTTRMSPPQQICLNSVVNTALS
modifications: disulfide 17-29 (inferred)
PfRon2L concentration at full equilibrium saturation of 796 nM DiCo (DiCo-Mix): 12.5 µM | PfRon2L concentration for almost full saturation of 796 nM DiCo (DiCo-Mix): > 1000 nM | PfRon2L concentration at full equilibrium saturation of 796 nM DiCo [1]: 12.5 µM | PfRon2L concentration for almost full saturation of 796 nM DiCo [1]: > 1000 nM | PfRon2L concentration at full equilibrium saturation of 796 nM DiCo [2]: 12.5 µM | PfRon2L concentration for almost full saturation of 796 nM DiCo [2]: > 1000 nM | PfRon2L concentration at full equilibrium saturation of 796 nM DiCo [3]: 12.5 µM | PfRon2L concentration for equilibrium saturation of 796 nM DiCo [3]: > 10 µM
